Experiment [1] concerns the target T1, CC chemokine receptor 4 (CCR4) (human, UniProt P51679 1-360).
T1 construct: whole, on cells; No recombinant CCR4 was used; also called CD194
T1 sequence (looked up): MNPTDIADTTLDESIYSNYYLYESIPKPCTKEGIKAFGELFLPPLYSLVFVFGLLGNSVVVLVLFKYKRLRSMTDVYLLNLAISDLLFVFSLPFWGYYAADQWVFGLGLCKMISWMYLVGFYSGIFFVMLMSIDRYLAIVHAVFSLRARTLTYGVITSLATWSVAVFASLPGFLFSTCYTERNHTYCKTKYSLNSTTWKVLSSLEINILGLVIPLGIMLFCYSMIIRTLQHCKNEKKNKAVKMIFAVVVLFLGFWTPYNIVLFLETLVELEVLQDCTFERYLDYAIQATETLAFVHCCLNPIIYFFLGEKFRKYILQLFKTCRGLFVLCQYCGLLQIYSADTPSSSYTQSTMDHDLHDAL
The experiment can be described thus: flow cytometry on HH cells transduced with the CAR; reduced staining by the parent mAb. In general terms: A flow cytometer gives signals particle by particle.

Experiment [2] has as its target T1, CC chemokine receptor 4 (CCR4). The experiment is described as follows: flow cytometry on HH cells, KW-0761 conjugated to Ax680. Here is the method: CCR4 was analyzed by FCM.
Dead cells were gated out by staining with violet amine-reactive viability dye, LIVE-DEAD violet (Invitrogen). Intracellular staining was performed using the Foxp3/Transcription Factor Staining Kit (Affymetrix) per the manufacturer's instructions. CCR4-CAR and CD19-CAR expression were detected by biotinylated antihuman Fab antibody and anti-mouse Fab antibody (Jackson ImmunoResearch), respectively. […] Data were collected either by a Fortessa LSRII or LSR II cytometer (BD Biosciences) and analyzed using FlowJo version 10 software (Tree Star).

Experiment [3] shares this target. The experiment can be described thus: flow cytometry on HH cells transduced with the CAR; loss of staining by the parent mAb.

B1: CCR4(KW_L2H)-CAR (other)
chain: GSDVLMTQSPLSLPVTPGEPASISCRSSRNIVHINGDTYLEWYLQKPGQSPQLLIYKVSNRFSGVPDRFSGSGSGTDFTLKISRVEAEDVGVYYCFQGSLLPWTFGQGTKVEIKGGGGSGGGGSGGGGSGGGGSEVQLVESGGDLVQPGRSLRLSCAASGFIFSNYGMSWVRQAPGKGLEWVATISSASTYSYYPDSVKGRFTISRDNAKNSLYLQMNSLRVEDTALYYCGRHSDGNFAFGYWGQGTLVTVSSSGTTTPAPRPPTPAPTIASQPLSLRPEACRPAAGGAVHTRGLDFACDIYIWAPLAGTCGVLLLSLVITLYCKRGRKKLLYIFKQPFMRPVQTTQEEDGCSCRFPEEEEGGCELRVKFSRSADAPAYKQGQNQLYNELNLGRREEYDVLDKRRGRDPEMGGKPRRKNPQEGLYNELQKDKMAEAYSEIGMKGERRRGKGHDGLYQGLSTATKDTYDALHMQALPPR
notes: Chimeric antigen receptor on the surface of transduced HH cells or primary T cells
On to B1, for which the binding result in experiment [1] was “binds”.

B2: anti-CCR4 monoclonal antibody clone KW-0761 (mogamulizumab) (antibody, V domains shown)
VH: EVQLVESGGDLVQPGRSLRLSCAASGFIFSNYGMSWVRQAPGKGLEWVATISSASTYSYYPDSVKGRFTISRDNAKNSLYLQMNSLRVEDTALYYCGRHSDGNFAFGYWGQGTLVTVSS
VL: DVLMTQSPLSLPVTPGEPASISCRSSRNIVHINGDTYLEWYLQKPGQSPQLLIYKVSNRFSGVPDRFSGSGSGTDFTLKISRVEAEDVGVYYCFQGSLLPWTFGQGTKVEIK
notes: also called anti-CCR4 clone KW monoclonal antibody
On to B2, for which the binding result in experiment [2] is given as “binds”.

B3: CCR4(h1567_L2H)-CAR (other)
chain: DIVMTQSPDSLAVSLGERATINCKSSQSILYSSNQKNYLAWYQQKPGQSPKLLIYWASTRESGVPDRFSGSGSGTDFTLTISSLQAEDVAVYYCHQYLSSYTFGQGTKLEIKGGGGSGGGGSGGGGSGGGGSQVQLVQSGAEVKKPGASVKVSCKASGYTFASYYMHWMRQAPGQGLEWIGWINPGNVNTKYNEKFKGRATLTVDTSTNTAYMELSSLRSEDTAVYYCARSTYYRPLDYWGQGTLVTVSS
notes: Chimeric antigen receptor on the surface of transduced HH cells or primary T cells; also called CCR4-CAR(h1567_L2H); not shown: second-generation CAR backbone (CD8 hinge and transmembrane, 4-1BB, CD3 zeta); the fu
Turning to B3, the binding result in experiment [3] is “binds”.
